The source of these data is patent US20230265151A1, “GIP/GLP1 CO-AGONIST COMPOUNDS” (priority 2020, published 2023).

Common to all, as to experiment: cell-based or functional assay
In experiment [1] the target is human glucagon receptor (human) (UniProt P47871).
The target in experiment [2] is T1, human GIP receptor (human) (UniProt P48546).
T1 sequence (looked up): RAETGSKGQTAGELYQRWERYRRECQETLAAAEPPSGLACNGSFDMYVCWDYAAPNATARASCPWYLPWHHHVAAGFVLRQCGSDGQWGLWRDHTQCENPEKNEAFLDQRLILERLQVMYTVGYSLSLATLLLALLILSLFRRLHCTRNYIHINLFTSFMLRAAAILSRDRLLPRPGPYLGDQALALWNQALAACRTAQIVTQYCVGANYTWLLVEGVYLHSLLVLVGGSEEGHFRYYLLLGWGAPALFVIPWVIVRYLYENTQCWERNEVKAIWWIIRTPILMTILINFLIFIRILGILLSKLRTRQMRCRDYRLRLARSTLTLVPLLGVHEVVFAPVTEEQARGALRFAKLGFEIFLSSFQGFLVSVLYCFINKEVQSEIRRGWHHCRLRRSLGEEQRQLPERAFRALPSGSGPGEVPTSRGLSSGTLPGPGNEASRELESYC

Experiment [3] deals with hGLP-1R (Homo sapiens, UniProt P43220).
The target in experiment [4] is human GLP-1 receptor (human, UniProt P43220 24-463).
Experiment [5] concerns the target T2, human GIP receptor (human, UniProt P48546 22-466).
T2 sequence (looked up): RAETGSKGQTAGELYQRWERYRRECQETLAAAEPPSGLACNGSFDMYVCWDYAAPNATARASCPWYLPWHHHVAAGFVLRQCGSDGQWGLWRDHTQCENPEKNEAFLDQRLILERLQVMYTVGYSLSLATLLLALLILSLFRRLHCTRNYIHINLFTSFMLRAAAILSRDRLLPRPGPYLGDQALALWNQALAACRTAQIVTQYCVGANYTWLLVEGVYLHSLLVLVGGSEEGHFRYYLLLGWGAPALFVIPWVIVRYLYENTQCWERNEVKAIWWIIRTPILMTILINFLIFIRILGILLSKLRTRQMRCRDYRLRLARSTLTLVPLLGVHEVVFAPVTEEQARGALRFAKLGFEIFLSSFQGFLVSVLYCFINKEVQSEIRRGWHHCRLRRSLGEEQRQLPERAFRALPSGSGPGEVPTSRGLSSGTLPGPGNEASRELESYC

Experiment [6] addresses human glucagon receptor (human, UniProt P47871 26-477).

human glucagon receptor, sequence (P47871 26-477): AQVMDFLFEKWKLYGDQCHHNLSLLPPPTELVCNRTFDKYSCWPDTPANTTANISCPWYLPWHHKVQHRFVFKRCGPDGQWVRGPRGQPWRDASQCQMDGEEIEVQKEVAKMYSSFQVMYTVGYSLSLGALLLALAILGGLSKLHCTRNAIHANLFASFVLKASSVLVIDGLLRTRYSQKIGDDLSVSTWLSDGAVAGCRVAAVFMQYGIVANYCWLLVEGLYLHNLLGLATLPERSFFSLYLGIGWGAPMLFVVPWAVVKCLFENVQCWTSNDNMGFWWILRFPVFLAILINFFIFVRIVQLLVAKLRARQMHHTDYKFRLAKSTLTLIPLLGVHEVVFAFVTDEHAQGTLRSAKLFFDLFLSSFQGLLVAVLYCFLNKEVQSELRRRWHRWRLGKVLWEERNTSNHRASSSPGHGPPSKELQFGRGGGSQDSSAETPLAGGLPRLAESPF

B1: Example 420 (peptide)
peptide: YXEGTXTSDXXIXLDXKAQXXFIXXLIEGGPSSGAPPPSK
modifications: Y-Aib-EGT-αMeF(2F)-TSD-4Pal-Aib-I-αMeL-LD-Orn-K((2-[2-(2-Amino-ethoxy)-ethoxy]-acetyl)2-(γ-Glu)-CO-(CH2)10-CH3)AQ-Aib-4Pal-FI-(D-Glu)-αMeY-LIEGGPSSGAPPPSK((2-[2-(2-Amino-ethoxy)-ethoxyl-acetyl)2-(γ-Glu)-CO-(CH2)10-CH3)-NH2
As for B1, the cAMP EC50 is > 9950 nM in experiment [1], 0.00964 nM in experiment [2] and 0.123 nM in experiment [3]. Besides, the values for the cAMP Emax in experiment [2] and in experiment [3] were 101% and 99.7%, respectively. Besides, the “cAMP EC50 (1.0% HSA)” value in experiment [4] was 10 nM; in experiment [5], 0.351 nM; in experiment [6] it was > 9950 nM. Also, in experiment [4], the “cAMP Emax (1.0% HSA)” value was 109%.

B2: Example 428 (peptide)
peptide: YXEGTXTSDXXIXLDXKAQXEFIXXLIEGGPSSGAPPPSK
modifications: Y-Aib-EGT-αMeF(2F)-TSD-4Pal-Aib-I-αMeL-LD-Orn-K((2-[2-(2-Amino-ethoxy)-ethoxy]-acetyl)-(γ-Glu)-CO-(CH2)10-CH3)AQ-Aib-EFI-(D-Glu)-αMeY-LIEGGPSSGAPPPSK((2-[2-(2-Amino-ethoxy)-ethoxy]-acetyl)-(γ-Glu)-CO-(CH2)10-CH3)-NH2
In the case of B2, the cAMP EC50 in experiment [1] is > 9950 nM; in experiment [2] it was 0.00797 nM; in experiment [3] it was 0.102 nM. Moreover, the cAMP Emax in experiment [2] is 95.5%; in experiment [3] it was 106%. Also, the “cAMP EC50 (1.0% HSA)” value is 10.2 nM in experiment [4], 0.748 nM in experiment [5] and > 9950 nM in experiment [6].

B3: Example 431 (peptide)
peptide: YXEGTXTSDXXIXLDXKAQXEXIXXLIEGGPSSGAPPPSK
modifications: not fully specified; Y-Aib-EGT-αMeF(2F)-TSD-4Pal-Aib-I-αMeL-LD-Orn-K((2-[2-(2-Amino-ethoxy)-ethoxy]-acetyl)2-(γ Glu)-CO-(CH2)10C3)AQ-Aib-E-αMeF-I-(D-Glu)-αMeY-LIEGGPSSGAPPPSK((2-[2-(2-Amino-ethoxy)-ethoxy]-acetyl)2-(γ-Glu)-CO-(CH2)10-CH3)-NH2
As for B3, the cAMP EC50 in experiment [1] is > 9950 nM; in experiment [2], 0.0097 nM; in experiment [3], 0.134 nM. Moreover, the cAMP Emax was 104% in experiment [2] and 99.2% in experiment [3]. The “cAMP EC50 (1.0% HSA)” value in experiment [4] is 17.5 nM; in experiment [5], 0.645 nM; in experiment [6], > 9950 nM. For the same molecule, the entries for the “cAMP Emax (1.0% HSA)” value in experiment [4] and in experiment [5] were 91.6% and 98%, respectively.

B4: Example 439 (peptide)
peptide: YXEGTXTSDXXIXLDXKAQXEXIXXLIEGGPSSGAPPPSK
modifications: Y-Aib-EGT-αMeF(2F)-TSD-4Pal-Aib-I-αMeL-LD-Orn-K((2-[2-(2-Amino-ethoxy)-ethoxy]-acetyl)3-(Y-Glu)-CO-(CH2)10-CH3)AQ-Aib-E-αMeF-I-(D-Glu)-αMeY-LIEGGPSSGAPPPSK((2-[2-(2-Amino-ethoxy)-ethoxy]-acetyl)3-(γ-Glu)-CO-(CH2)10-CH3)-NH2
Consider B4, for which the cAMP EC50 was > 9950 nM in experiment [1], 0.00799 nM in experiment [2] and 0.11 nM in experiment [3]. The cAMP Emax in experiment [3] stood at 95.7%. Besides, the “cAMP EC50 (1.0% HSA)” value in experiment [4] is 9.25 nM; in experiment [5], 0.396 nM; in experiment [6], > 9950 nM. Also, the “cAMP Emax (1.0% HSA)” value in experiment [4] turned out to be 97%; in experiment [5], 91.7%.

B5: Example 424 (peptide)
peptide: YXEGTXTSDXXIXLDXKAQXEFIXXLIEGGPSSGAPPPSK
modifications: Y-Aib-EGT-αMeF(2F)-TSD-4Pal-Aib-I-αMeL-LD-Orn-K((2-[2-(2-Amino-ethoxy)-ethoxy]-acetyl)3-(γ-Glu)-CO-(CH2)10-CH3)AQ-Aib-EFI-(D-Glu)-αMeY-LIEGGPSSGAPPPSK((2-[2-(2-Amino-ethoxy)-ethoxy]-acetyl)3-(γ-Glu)-CO-(CH2)10-CH3)-NH2
B5: the cAMP EC50 in experiment [1] was > 9950 nM; in experiment [2], 0.00502 nM; in experiment [3], 0.0427 nM. Also, the cAMP Emax amounted to 101% in experiment [2] and 102% in experiment [3]. The entries for the “cAMP EC50 (1.0% HSA)” value in experiment [4], in experiment [5] and in experiment [6] were 3.07 nM, 0.159 nM and > 9950 nM, respectively.

B6: Example 435 (peptide)
peptide: YXEGTXTSDXXIXLDXKAQXXFIXXLIEGGPSSGAPPPSK
modifications: Y-Aib-EGT-αMeF(2F)-TSD-4Pal-Aib-I-αMeL-LD-Orn-K((2-[2-(2-Amino-ethoxy)-ethoxy]-acetyl)3-(γ Glu)-CO-(CH2)10CH3)AQ-Aib-Orn-FI-(D-Glu)-αMeY-LIEGGPSSGAPPPSK((2-[2-(2-Amino-ethoxy)-ethoxy]-acetyl)3-(γ-Glu)-CO-(CH2)10-CH3)-NH2
Turning to B6, the cAMP EC50 in experiment [1] was > 9950 nM; in experiment [2], 0.00517 nM; in experiment [3] it was 0.0527 nM. The cAMP Emax in experiment [2] stood at 104%; in experiment [3], 111%. Besides, the results for the “cAMP EC50 (1.0% HSA)” value in experiment [4], in experiment [5] and in experiment [6] were 1.63 nM, 0.0873 nM and > 9950 nM, respectively. Moreover, the “cAMP Emax (1.0% HSA)” value turned out to be 97.8% in experiment [4] and 98.7% in experiment [5].

B7: Example 421 (peptide)
peptide: YXEGTXTSDKXIXLDXKAQXEFIXXLIEGGPSSGAPPPS
modifications: Y-Aib-EGT-αMeF(2F)-TSDK((2-[2-(2-Amino-ethoxy)-ethoxy]-acetyl)3-(γ-Glu)-CO-(CH2)10-CH3)-Aib-I-αMeL-LD-Orn-K((2-[2-(2-Amino-ethoxy)-ethoxy]-acetyl)3-(γ-Glu)-CO-(CH2)10-CH3)AQ-Aib-EFI-(D-Glu)-αMeY-LIEGGPSSGAPPPS-NH2
For B7, the cAMP EC50 in experiment [1] was > 9950 nM; in experiment [2], 0.00618 nM; in experiment [3] it was 0.057 nM. The results for the cAMP Emax in experiment [2] and in experiment [3] were 100% and 101%, respectively. For the same molecule, the entries for the “cAMP EC50 (1.0% HSA)” value in experiment [4], in experiment [5] and in experiment [6] were 2.01 nM, 0.164 nM and > 9950 nM, respectively. In addition, the “cAMP Emax (1.0% HSA)” value in experiment [5] was 98%.

B8: Example 432 (peptide)
peptide: YXEGTXTSDKXIXLDXKAQXXFIXXLIEGGPSSGAPPPS
modifications: Y-Aib-EGT-αMeF(2F)-TSDK((2-[2-(2-Amino-ethoxy)-ethoxy]-acetyl)3-(γ-Glu)-CO-(CH2)10-CH3)-Aib-I-αMeL-LD-Orn-K((2-[2-(2-Amino-ethoxy)-ethoxy]-acetyl)3-(γ-Glu)-CO-(CH2)10-CH3)AQ-Aib-Orn-FI-(D-Glu)-αMeY-LIEGGPSSGAPPPS-NH2
With B8, the cAMP EC50 is > 9950 nM in experiment [1], 0.00602 nM in experiment [2] and 0.0549 nM in experiment [3]. Also, the cAMP Emax in experiment [3] is 106%. The “cAMP EC50 (1.0% HSA)” value in experiment [4] is 1.28 nM; in experiment [5], 0.0875 nM; in experiment [6] it was > 9950 nM.
